This passage reports Kd results from patent US20160032279 (published 2016).

Assay [1] addresses T1, Streptavidin (Streptomyces avidinii, UniProt P22629). In words: FACS. (A flow cytometer gives signals particle by particle.)
For assay [2], the target named is T1, Streptavidin. Kind of assay: FACS. This is another data set of the same source.

Where two headings read alike, the source gives them in different places. No end group written: not given here.

T1 sequence (P22629 37-163): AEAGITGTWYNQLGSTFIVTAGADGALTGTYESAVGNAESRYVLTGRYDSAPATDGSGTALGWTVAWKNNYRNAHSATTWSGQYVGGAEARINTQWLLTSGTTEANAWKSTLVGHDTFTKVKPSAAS

TVLICMNICWTGETQ (cysteine pairing not given here; also: phycoerythrin conjugate) [SA-3]: the Kd in assay [1] and in assay [2] was 4 nM each time.
Consider RLEICQNVCYYLGTL (cysteine pairing not given here; also: phycoerythrin conjugate) [SA-1], for which, in assay [2], binding was characterised by a dissociation constant (Kd) of 10 nM.
Same read-out and setting: the value for ICSYVMYTTCFLRVY (cysteine pairing not given here; also: phycoerythrin conjugate) [SA-2] was 8 nM.
